Data taken from patent US20250152742A1, “COMPOSITIONS AND METHODS FOR NEUROLOGICAL DISEASES” (Trames Bio, Inc., priority 2022, published 2025).
Substitutions are numbered along the chain they refer to. Names may count otherwise.

System: engineered chimeric receptor SEQ ID NO: 33 and its mutants (human α7-nAChR ligand binding domain / human GlyRα1 ion pore domain) in Lenti-X 293T cells
Assay: YFP fluorescence quenching anion reporter plate reader assay (percent quench, EC50)
Format: cell-based
Details: for YFP fluorescence quenching using CNL001 (percent quench): receptor named in row; for YFP fluorescence quenching using Facinicline, 30 nM fac: ligand Facinicline 30 nM; for YFP fluorescence quenching using Facinicline, 300 nM fac: ligand Facinicline 300 nM; for YFP fluorescence quenching using Facinicline, 30 uM fac: ligand Facinicline 30 uM; for YFP fluorescence quenching using TC-6987, 1 uM tc6987: ligand TC-6987 1 uM; for YFP fluorescence quenching using TC-6987, 10 uM tc6987: ligand TC-6987 10 uM; for YFP fluorescence quenching using TC-6987, 500 uM tc6987: ligand TC-6987 500 uM; for YFP fluorescence quenching using Varenicline, 3 nM var: ligand Varenicline 3 nM; for YFP fluorescence quenching using Varenicline, 30 nM var: ligand Varenicline 30 nM; for YFP fluorescence quenching using Varenicline, 300 nM var: ligand Varenicline 300 nM; for YFP fluorescence quenching using Varenicline, 500 nM var: ligand Varenicline 500 nM; for YFP fluorescence quenching using Varenicline, 1 uM var: ligand Varenicline 1 uM
Text: To screen these mutant LGICs for those having novel response profiles to ligands, an anion reporter assay was developed to assess the function of the LGICs in a high throughput format. In this assay, cells expressing a YFP reporter whose fluorescence is quenched in the presence of anion are transfected with DNA encoding the channel of interest. Upon exposure to ligand, channels that are activated will flux anion, resulting in a dose-dependent quench of the YFP that can be detected on a plate reader. The greater the quench signal (i.e., the more positive the value), the higher the ligand activity on the receptor is.
Lenti-X 293T cells (LX293T, Clontech) were maintained in DMEM containing 10% FBS and 1% penicillin/streptomycin (Invitrogen). […] Two days before assay, cells were split at a density of 20,000 cells/well in a 96-well tissue culture plate coated with poly-d lysine (Thermo Scientific). The next day, the cells were transiently transfected with 0.1 μg of DNA per well using standard Fugene protocol (Promega). On the day of assay, cells were washed 2 times in 1X extracellular solution (1X ECS: 140 mM NaCl, 5 mM KCl, 1 mM MgCl2, 2 mM CaCl2, 10 mM HEPES, 10 mM glucose, pH 7.2, mOsms 300). After the last wash, 100 μL of 1X ECS was added to the wells and the plate was incubated at 37° C. for 30 min. While incubating the plate, the drugs were diluted to a 2X concentration in 1X ECS-Nal (same components as 1X ECS except the 140 mM NaCl was replaced by 140 mM Nal). The plates were then read on a Flexstation3 (Molecular Devices). Each well, 8 wells at a time, of the plate is read for 2 min using a Flexstation3 (Molecular Devices) as follows: 1) a baseline YFP fluorescence is read for 17 sec, 2) 100 μL of ligand is added, and 3) the changes in YFP fluorescence are then measured every 1.3 sec for 1 minute and 43 seconds. The percent quench is calculated from the average fluorescence of the last 10 seconds of the read divided by the baseline average of the first 15 seconds prior to the ligand addition.
FIGS. 1A-1J provide heat maps of the percent quench of YFP fluorescence following stimulation by various doses of either acetylcholine or the non-native ligand as indicated in the Figures. CODA71 (SEQ ID NO: 33) was used as a control, and CODA75 (SEQ ID NO: 29, a non-responding chimeric engineered receptor) was used as the negative control. Quenching of the fluorescence signal, as indicated by blue shaded cells, indicate the level of engineered receptor activation by the non-native ligand at that concentration.

[1] = 1 nM CNL001, first column so headed
[2] = 1 nM CNL001, second column so headed
[3] = 3 nM brd (TC-5619/Bradanicline)
[4] = 10 nM CNL001, first column so headed
[5] = 10 nM CNL001, second column so headed
[6] = 30 nM brd (TC-5619/Bradanicline)
[7] = 50 nM CNL001, first column so headed
[8] = 50 nM CNL001, second column so headed
[9] = 100 nM CNL001, first column so headed
[10] = 100 nM CNL001, second column so headed
[11] = 300 nM brd (TC-5619/Bradanicline)
[12] = 1 uM CNL001, first column so headed
[13] = 1 uM CNL001, second column so headed

B1: CODA236: engineered receptor: R101F in SEQ ID NO: 33 (protein)
chain: MRCSPGGVWLALAASLLHVSLQGEFQRKLYKELVKNYNPLERPVANDSQPLTVYFSLSLLQIMDVDEKNQVLTTNIWLQMSWTDHYLQWNVSEYPGVKTVFFPDGQIWKPDILLYNSADERFDATFHTNVLVNSSGHCQYLPPGIFKSSCPMDLKNFPMDVQTCKLKFGSWSYGGWSLDLQMQEADISGYIPNGEWDLVGIPGKRSERFYECCKEPYPDVTFTVTMRRRMGYYLIQMYIPSLLIVILSWISFWINMDAAPARVGLGITTVLTMTTQSSGSRASLPKVSYVKAIDIWMAVCLLFVFSALLEYAAVNFVSRQHKELLRFRRKRRHHKSPMLNLFQEDEAGEGRFNFSAYGMGPACLQAKDGISVKGANNSNTTNPPPAPSKSPEEMRKLFIQRAKKIDKISRIGFPMAFLIFNMFYWIIYKIVRREDVHNQ
modifications: synthetic sequence of chimeric LGIC
YFP fluorescence quenching using CNL001 (percent quench) [1]: 9.048% | YFP fluorescence quenching using CNL001 (percent quench) [2]: 26.601% | YFP fluorescence quenching using TC-5619/Bradanicline (percent quench) [3]: 49.33% | YFP fluorescence quenching using CNL001 (percent quench) [4]: 71.533% | YFP fluorescence quenching using CNL001 (percent quench) [5]: 72.948% | YFP fluorescence quenching using TC-5619/Bradanicline (percent quench) [6]: 77.38% | YFP fluorescence quenching using CNL001 (percent quench) [7]: 75.895% | YFP fluorescence quenching using CNL001 (percent quench) [8]: 74.238% | YFP fluorescence quenching using ABT-126 (percent quench) (50 nM abt (ABT-126)): −18.69% | YFP fluorescence quenching using CNL001 (percent quench) [9]: 76% | YFP fluorescence quenching using CNL001 (percent quench) [10]: 75.861% | YFP fluorescence quenching (percent quench) (100 nM CNL002): −9.56% | YFP fluorescence quenching using ABT-126 (percent quench) (100 nM abt (ABT-126)): −23.01% | YFP fluorescence quenching using AZD-0328 (percent quench) (100 nM azd0328): −9.78% | YFP fluorescence quenching using ABT-126 (percent quench) (300 nM abt (ABT-126)): −20.92% | YFP fluorescence quenching using AZD-0328 (percent quench) (300 nM azd0328): 49.64% | YFP fluorescence quenching using TC-5619/Bradanicline (percent quench) [11]: 77.51% | YFP fluorescence quenching using CNL001 (percent quench) [12]: 76.367% | YFP fluorescence quenching using CNL001 (percent quench) [13]: 76.162% | YFP fluorescence quenching (percent quench) (1 uM CNL002): 56.9% | YFP fluorescence quenching using ABT-126 (percent quench) (1 uM abt (ABT-126)): 4.99% | YFP fluorescence quenching (percent quench) (10 uM ach (acetylcholine)): −18.24% | YFP fluorescence quenching (percent quench) (30 uM CNL002): 70.28% | YFP fluorescence quenching using AZD-0328 (percent quench) (30 uM azd0328): 81.14% | YFP fluorescence quenching (percent quench) (100 uM ach (acetylcholine)): 60% | YFP fluorescence quenching (percent quench) (1 mM ach (acetylcholine)): 66.07% | YFP fluorescence quenching (percent quench) (3 mM ach (acetylcholine)): 71.38% | YFP fluorescence quenching using Facinicline, 30 nM fac: −28.54 | YFP fluorescence quenching using Facinicline, 300 nM fac: 72.98 | YFP fluorescence quenching using Facinicline, 30 uM fac: 87.6 | YFP fluorescence quenching using TC-6987, 1 uM tc6987: 45.34 | YFP fluorescence quenching using TC-6987, 10 uM tc6987: 70.04 | YFP fluorescence quenching using TC-6987, 500 uM tc6987: 75.86 | YFP fluorescence quenching using Varenicline, 3 nM var (first column): 19.949 | YFP fluorescence quenching using Varenicline, 3 nM var (second column): 22.334 | YFP fluorescence quenching using Varenicline, 30 nM var (first column): 15.764 | YFP fluorescence quenching using Varenicline, 30 nM var (second column): 16.213 | YFP fluorescence quenching using Varenicline, 300 nM var (first column): 23.135 | YFP fluorescence quenching using Varenicline, 300 nM var (second column): 22.987 | YFP fluorescence quenching using Varenicline, 500 nM var (first column): 35.048 | YFP fluorescence quenching using Varenicline, 500 nM var (second column): 34.188 | YFP fluorescence quenching using Varenicline, 1 uM var (first column): 71.031 | YFP fluorescence quenching using Varenicline, 1 uM var (second column): 71.005

B2: CODA237: engineered receptor: R101M in SEQ ID NO: 33 (protein)
chain: B1 chain with F101M
modifications: synthetic sequence of chimeric LGIC
YFP fluorescence quenching using CNL001 (percent quench) [1]: −2.114% | YFP fluorescence quenching using CNL001 (percent quench) [2]: −5.079% | YFP fluorescence quenching using TC-5619/Bradanicline (percent quench) [3]: −14.87% | YFP fluorescence quenching using CNL001 (percent quench) [4]: 15.096% | YFP fluorescence quenching using CNL001 (percent quench) [5]: 50.554% | YFP fluorescence quenching using TC-5619/Bradanicline (percent quench) [6]: 69.93% | YFP fluorescence quenching using CNL001 (percent quench) [7]: 66.585% | YFP fluorescence quenching using CNL001 (percent quench) [8]: 74.462% | YFP fluorescence quenching using ABT-126 (percent quench) (50 nM abt (ABT-126)): −24.34% | YFP fluorescence quenching using CNL001 (percent quench) [9]: 78% | YFP fluorescence quenching using CNL001 (percent quench) [10]: 77.411% | YFP fluorescence quenching (percent quench) (100 nM CNL002): −8.68% | YFP fluorescence quenching using ABT-126 (percent quench) (100 nM abt (ABT-126)): −20.22% | YFP fluorescence quenching using AZD-0328 (percent quench) (100 nM azd0328): −17.84% | YFP fluorescence quenching using ABT-126 (percent quench) (300 nM abt (ABT-126)): −20.57% | YFP fluorescence quenching using AZD-0328 (percent quench) (300 nM azd0328): −11.98% | YFP fluorescence quenching using TC-5619/Bradanicline (percent quench) [11]: 76.57% | YFP fluorescence quenching using CNL001 (percent quench) [12]: 79.06% | YFP fluorescence quenching using CNL001 (percent quench) [13]: 79.162% | YFP fluorescence quenching (percent quench) (1 uM CNL002): −2.24% | YFP fluorescence quenching using ABT-126 (percent quench) (1 uM abt (ABT-126)): −19.55% | YFP fluorescence quenching (percent quench) (10 uM ach (acetylcholine)): −16.79% | YFP fluorescence quenching (percent quench) (30 uM CNL002): 66.99% | YFP fluorescence quenching using AZD-0328 (percent quench) (30 uM azd0328): 81.2% | YFP fluorescence quenching (percent quench) (100 uM ach (acetylcholine)): −18.63% | YFP fluorescence quenching (percent quench) (1 mM ach (acetylcholine)): 46.28% | YFP fluorescence quenching (percent quench) (3 mM ach (acetylcholine)): 69.31% | YFP fluorescence quenching using Facinicline, 30 nM fac: −24.14 | YFP fluorescence quenching using Facinicline, 300 nM fac: −14.38 | YFP fluorescence quenching using Facinicline, 30 uM fac: 88.78 | YFP fluorescence quenching using TC-6987, 1 uM tc6987: −21.62 | YFP fluorescence quenching using TC-6987, 10 uM tc6987: 21.52 | YFP fluorescence quenching using TC-6987, 500 uM tc6987: 60.33 | YFP fluorescence quenching using Varenicline, 3 nM var (first column): 18.429 | YFP fluorescence quenching using Varenicline, 3 nM var (second column): 16.83 | YFP fluorescence quenching using Varenicline, 30 nM var (first column): 23.07 | YFP fluorescence quenching using Varenicline, 30 nM var (second column): 15.868 | YFP fluorescence quenching using Varenicline, 300 nM var (first column): 18.819 | YFP fluorescence quenching using Varenicline, 300 nM var (second column): 19.155 | YFP fluorescence quenching using Varenicline, 500 nM var (first column): 19.117 | YFP fluorescence quenching using Varenicline, 500 nM var (second column): 22.593 | YFP fluorescence quenching using Varenicline, 1 uM var (first column): 24.525 | YFP fluorescence quenching using Varenicline, 1 uM var (second column): 23.383
